Test system: T1, YhjC-His6 (Shigella flexneri (serotype 5a M90T?)), ORF:c5ce7ff9
T1 sequence: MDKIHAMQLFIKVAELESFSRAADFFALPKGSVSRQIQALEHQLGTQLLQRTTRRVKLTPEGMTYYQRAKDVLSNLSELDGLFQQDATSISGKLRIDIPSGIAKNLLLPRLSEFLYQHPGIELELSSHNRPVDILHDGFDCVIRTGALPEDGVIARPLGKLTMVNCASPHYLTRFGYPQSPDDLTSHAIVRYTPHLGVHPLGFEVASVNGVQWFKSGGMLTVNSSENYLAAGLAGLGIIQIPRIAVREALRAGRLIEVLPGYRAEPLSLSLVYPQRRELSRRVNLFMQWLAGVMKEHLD
Test: EMSA
Conditions: 20 mM Tris-HCl pH 7.5, 50 mM KCl, 1 mM EDTA, 1 mM DTT, 5% glycerol

Question: For “GGTTATAGTCCCTTTCAGTGCAAATACTTAGCTTGTTGCACAGAGAAATAGAAGCTGCATAAGCTCTTTCTTCAAAAAATGTAAATAAAGTTAAATATAGGAAAAATTACTTAATCTATCTTAATAACGGAAAGATTTTGTATACAATCACTGTTACAGAAATTTCTTAGTTACTCTGTAAACACTAAATATAGTTTGGTATATTCTGTTGAATTTATGATGGATATGGGACATAAAAACAAAATAGATATAAAGGTTCGCTTGCATAAC (double strand) [virF promoter (PvirF)]”, which binding is on record?
Answer: binds

Source: PMC8218686
